# Results published in the RNAGym collection of RNA variant scans (doi:10.1021/acssynbio.7b00057).
# B1: Pistol ribozyme (parent)
# chain: GGGUCGUUGUUCCAUAAUCGCGUGGAUAUGGCACGCAAGUUUCUACCGGGCACCGUAAAUGUCCGACUGGAGCCGUUCGGGCGGCUAUAAACAGACCUCAGGCCCGAAGCGUGGCGGCACCUGCCGCCGGUGGUAAAAAAGAUCGGAAGAGCACACGUCU
# Variants of: B1
# Experiment: aptazyme ON/OFF ratio, guanine; higher = stronger switching; co-transcriptional cleavage with and without guanine
row,Variant,aptazyme ON/OFF ratio
1,U8A G9U U10G U11A C12G C13G,1.31
2,U8A G9U U11A C12A C13U,1.38
3,U8A G9U U11A C12A C13G,1.18
4,U8A G9U U11A C12A C13A,1.22
5,U8A U10A U11G C13G,1.14
6,U8A U10A U11G C13U,1.13
7,U8A U10A U11G C13A,1.18
8,U8A G9U U10C U11G C12G C13A,1.15
9,U8A G9U U10C U11G C12G C13G,1.11
10,U8A G9U U10C U11G C12G C13U,1.11
11,U8A G9U U10G U11G C12U C13A,1.32
12,U8A G9U U10G U11G C12U C13G,1.21
13,U8A G9U U10G U11G C12U C13U,1.35
14,U8A G9U U10C U11A C12U C13G,1.1
15,U8A G9U U10C U11A C12U C13A,1.26
16,U8A G9U U10C U11A C12U C13U,1.15
17,U8A G9U U10C C12A,1.04
18,U8A G9U U10C C12U,1.08
19,U8A G9U U10C C12G,1.04
20,U8A G9U U10A U11A C13G,1.07
21,U8A G9U U10A U11A C13U,1.28
22,U8A G9U U10A U11A C13A,1.29
23,U8A G9U U10A U11G C13A,1.23
24,U8A G9U U10A U11G C13U,1.25

row,Variant,aptazyme ON/OFF ratio
1,U8A G9U U10A U11G C13G,1.08
2,U8A U10A C13U,1.03
3,U8A U10A C13A,1.05
4,U8A U10A C13G,1.06
5,U8A G9U U10C U11G C12U,1.18
6,U8A G9U U10C U11G C12A,1.05
7,U8A G9U U10C U11G C12G,1.09
8,U8A G9U U10G U11G C12A C13U,1.26
9,U8A G9U U10G U11G C12A C13A,1.16
10,U8A G9U U10G U11G C12A C13G,1.14
11,U8A G9U U10A U11A,1.67
12,U8A G9U U10A U11G,1.42
13,U8A G9U U10A U11C,1.03
14,U8A U10A C12G C13A,1.15
15,U8A U10A C12G C13G,1.19
16,U8A U10A C12G C13U,1.37
17,U8A G9U U10G C12U C13U,1.45
18,U8A G9U U10G C12U C13G,1.27
19,U8A G9U U10G C12U C13A,1.31
20,U8A G9U U10G U11G C13U,1.03
21,U8A G9U U10G U11G C13A,1.08
22,U8A G9U U10G U11G C13G,1.06
23,U8A G9U U10G C12G C13U,1.28
24,U8A G9U U10G C12G C13G,1.15

row,Variant,aptazyme ON/OFF ratio
1,U8A G9U U10G C12G C13A,1.29
2,U8A G9U C13A,1.24
3,U8A G9U C13G,1.09
4,U8A G9U C13U,1.4
5,U8A G9U U10A C12U C13A,1.25
6,U8A G9U U10A C12U C13U,1.13
7,U8A G9U U10A C12U C13G,1.18
8,U8A U10C U11A C12G,1.19
9,U8A U10C U11A C12A,1.13
10,U8A G9U U10A U11A C12A C13U,1.24
11,U8A G9U U10A U11A C12A C13G,1.23
12,U8A G9U U10A U11A C12A C13A,1.16
13,U8A G9U U10A U11G C12G C13U,1.31
14,U8A G9U U10A U11G C12G C13A,1.1
15,U8A G9U U10A U11G C12G C13G,1.24
16,U8A G9U U10G U11C C12A C13A,1.09
17,U8A G9U U10G U11C C12A C13G,1.03
18,U8A G9U U10G U11C C12A C13U,1.15
19,U8A G9U U10C C12U C13U,1.18
20,U8A G9U U10C C12U C13G,1.07
21,U8A G9U U10C C12U C13A,1.08
22,U8A G9U U10A C12G C13G,1.28
23,U8A G9U U10A C12G C13U,1.33
24,U8A G9U U10A C12G C13A,1.34

row,Variant,aptazyme ON/OFF ratio
1,U8A U10A U11C C12U,1.01
2,U8A U10A U11C C12G,1.08
3,U8A U10A U11C C12A,1.09
4,U8A U10A U11G,1.17
5,U8A U10A U11A,1.14
6,U8A U10A U11C,1
7,U8A G9U U11A C12G C13A,1.32
8,U8A G9U U11A C12G C13U,1.3
9,U8A G9U U11A C12G C13G,1.3
10,U8A U10C C12A C13G,1.11
11,U8A U10C C12A C13U,1.26
12,U8A U10C C12A C13A,1.23
13,U8A G9U U10A U11C C12A C13A,1.23
14,U8A G9U U10A U11C C12A C13U,1.25
15,U8A G9U U10A U11C C12A C13G,1.2
16,U8A U10C C12U C13U,1.35
17,U8A U10C C12U C13G,1.11
18,U8A U10C C12U C13A,1.22
19,U8A G9U U10G C12A C13A,1.18
20,U8A G9U U10G C12A C13U,1.5
21,U8A G9U U10G C12A C13G,1.12
22,U8A G9U U10A C12U,1.4
23,U8A G9U U10A C12G,1.31
24,U8A G9U U10A C12A,1.34

row,Variant,aptazyme ON/OFF ratio
1,U8A U10A U11G C12G C13A,1.06
2,U8A U10A U11G C12G C13U,1.27
3,U8A U10A U11G C12G C13G,1.15
4,U8A U10A U11C C12G C13G,1.27
5,U8A U10A U11C C12G C13U,1.16
6,U8A U10A U11C C12G C13A,1.1
7,U8A G9U U10G U11G C12A,1.07
8,U8A G9U U10G U11G C12U,1.28
9,U8A G9U U10G U11G C12G,1.27
10,U8A G9U U10G U11C C13G,1.04
11,U8A G9U U10G U11C C13A,1.03
12,U8A G9U U10G U11C C13U,1.02
13,U8A G9U U10C U11G C12U C13U,1.25
14,U8A G9U U10C U11G C12U C13G,1.14
15,U8A G9U U10C U11G C12U C13A,1.11
16,U8A G9U U11A C12G,1.09
17,U8A G9U U11A C12U,1.47
18,U8A G9U U11A C12A,1.28
19,U8A G9U U10A U11G C12U C13A,1.27
20,U8A G9U U10A U11G C12U C13U,1.4
21,U8A G9U U10A U11G C12U C13G,1.17
22,U8A U10C C12G C13G,1.45
23,U8A U10C C12G C13U,1.44
24,U8A U10C C12G C13A,1.19

row,Variant,aptazyme ON/OFF ratio
1,U8A G9U U10C U11C C12A C13G,1.05
2,U8A G9U U10C U11C C12A C13U,1.04
3,U8A G9U U10C U11C C12A C13A,1.01
4,U8A G9U U10G C13G,1.13
5,U8A G9U U10G C13A,1.18
6,U8A G9U U10G C13U,1.55
7,U8A U10A U11C C12U C13A,1.08
8,U8A U10A U11C C12U C13G,1.09
9,U8A U10A U11C C12U C13U,1.06
10,U8A G9U U11C,1.03
11,U8A G9U U11A,1.79
12,U8A G9U U11G,1.63
13,U8A G9U U11G C12G C13A,1.25
14,U8A G9U U11G C12G C13U,1.16
15,U8A G9U U11G C12G C13G,1.24
16,U8A G9U U10C U11A C12G C13U,1.14
17,U8A G9U U10C U11A C12G C13G,1.12
18,U8A G9U U10C U11A C12G C13A,1.15
19,U8A U10A U11A C12G,1.07
20,U8A U10A U11A C12U,1.09
21,U8A U10A U11A C12A,1.14
22,U8A G9U U10C U11G,1.34
23,U8A G9U U10C U11C,1.04
24,U8A G9U U10C U11A,1.34

row,Variant,aptazyme ON/OFF ratio
1,U8A G9U U10A U11C C12U,1.11
2,U8A G9U U10A U11C C12G,1.09
3,U8A G9U U10A U11C C12A,1.07
4,U8A G9U U10G U11C C12U C13U,1.08
5,U8A G9U U10G U11C C12U C13A,1.04
6,U8A G9U U10G U11C C12U C13G,1.05
7,U8A U10A U11C C13A,1.03
8,U8A U10A U11C C13G,1.02
9,U8A U10A U11C C13U,1.04
10,U8A G9U U10A U11A C12A,1.36
11,U8A G9U U10A U11A C12U,1.32
12,U8A G9U U10A U11A C12G,1.25
13,U8A U10C,4.03
14,U8A U10A,1.07
15,U8A U10C U11A C12G C13G,1.39
16,U8A U10C U11A C12G C13U,1.34
17,U8A U10C U11A C12G C13A,1.15
18,U8A U10A U11A C12G C13U,1.13
19,U8A U10A U11A C12G C13A,1.12
20,U8A U10A U11A C12G C13G,1.18
21,U8A G9U U11G C12A C13A,1.11
22,U8A G9U U11G C12A C13G,1.41
23,U8A G9U U11G C12A C13U,1.23
